Laboratory results from doi:10.1101/2020.05.26.111013.

Molecular target: PelX^C232S (Pseudomonas protegens Pf-5)
Experiment: SEC

Substance PelX^C232S (enzyme) has a stoichiometry N of 2.
